The record followed here is patent US20070224205A1.

For the assay, the target named is Toll-like Receptor 5 (UniProt O60602). The assay can be described thus: cell-based or functional assay.

B1: STF2.HA1-2His(PR8), produced in Baculovirus (protein)
chain: AQVINTNSLSLLTQNNLNKSQSALGTAIERLSSGLRINSAKDDAAGQAIANRFTANIKGLTQASRNANDGISIAQTTEGALNEINNNLQRVRELAVQSANSTNSQSDLDSIQAEITQRLNEIDRVSGQTQFNGVKVLAQDNTLTIQVGANDGETIDIDLKQINSQTLGLDSLNVQKAYDVKDTAVTTKAYANNGTTLDVSGLDDAAIKAATGGTNGTASVTGGAVKFDADNNKYFVTIGGFTGADAAKNGDYEVNVATDGTVTLAAGATKTTMPAGATTKTEVQELKDTPAVVSADAKNALIAGGVDATDANGAELVKMSYTDKNGKTIEGGYALKAGDKYYAADYDEATGAIKAKTTSYTAADGTTKTAANQLGGVDGKTEVVTIDGKTYNASKAAGHDFKAQPELAEAAAKTTENPLQKIDAALAQVDALRSDLGAVQNRFNSAITNLGNTVNNLSEARSRIEDSDYATEVSNMSRAQILQQAGTSVLAQANQVPQNVLSLLASGSGSGSKGIAPQLGKCNIAGWLLGNPECDPLLPVRSWSYIVETPNSENGICYPGDFIDYEELREQLSSVSSFERFEIFPKESSWPNHNTNGVTAACSHEGKSSFYRNLLWLTEKEGSYPKLKNSYVNKKGKEVLVLWGIHHPPNSKEQQNLYQNENAYVSVVTSNYNRRFTPEIAERPKVRDQAGRMNYYWTLLKPGDTIIFEANGNLIAPMYAFALSRGFGSGIITSHHHHHH
For B1, the TLR activity (EC50, ng/ml); IL-8 secretion by HEK293 cells was 9 ng/mL.

B2: ngSTF2.HA1-2mutHis(PR8) (protein)
chain: AQVINTNSLSLLTQNNLQKSQSALGTAIERLSSGLRINSAKDDAAGQAIANRFTANIKGLTQASRNANDGISIAQTTEGALNEINNNLQRVRELAVQSAQSTNSQSDLDSIQAEITQRLNEIDRVSGQTQFNGVKVLAQDNTLTIQVGANDGETIDIDLKQINSQTLGLDSLNVQKAYDVKDTAVTTKAYANQGTTLDVSGLDDAAIKAATGGTQGTASVTGGAVKFDADNNKYFVTIGGFTGADAAKNGDYEVNVATDGTVTLAAGATKTTMPAGATTKTEVQELKDTPAVVSADAKNALIAGGVDATDANGAELVKMSYTDKNGKTIEGGYALKAGDKYYAADYDEATGAIKAKTTSYTAADGTTKTAANQLGGVDGKTEVVTIDGKTYQASKAAGHDFKAQPELAEAAAKTTENPLQKIDAALAQVDALRSDLGAVQNRFNSAITNLGNTVNQLSEARSRIEDSDYATEVSQMSRAQILQQAGTSVLAQANQVPQNVLSLLASGSGSGSKGAAPQLGKCNIAGWLLGNPECDPLLPVRSWSDIAETPNSENGICYPGDFIDYEELREQLSSVSSFERFEIFPKESSWPNHNTNGVTAACSHEGKSSFYRNLLWLTEKEGSYPKLKNSYVNKKGKEVLVLWGIHHPPNSKEQQNLYQNENAYVSVVTSNYNRRFTPEIAERPKVRDQAGRMNYYWTLLKPGDTIIFEANGNLIAPMYAFALSRGFGSGIITSHHHHHH
On to B2, for which the TLR activity (EC50, ng/ml); IL-8 secretion by HEK293 cells is 9 ng/mL.

B3: STF2.HA1-1His(PR8), produced in E. coli (protein)
chain: MAQVINTNSLSLLTQNNLNKSQSALGTAIERLSSGLRINSAKDDAAGQAIANRFTANIKGLTQASRNANDGISIAQTTEGALNEINNNLQRVRELAVQSANSTNSQSDLDSIQAEITQRLNEIDRVSGQTQFNGVKVLAQDNTLTIQVGANDGETIDIDLKQINSQTLGLDSLNVQKAYDVKDTAVTTKAYANNGTTLDVSGLDDAAIKAATGGTNGTASVTGGAVKFDADNNKYFVTIGGFTGADAAKNGDYEVNVATDGTVTLAAGATKTTMPAGATTKTEVQELKDTPAVVSADAKNALIAGGVDATDANGAELVKMSYTDKNGKTIEGGYALKAGDKYYAADYDEATGAIKAKTTSYTAADGTTKTAANQLGGVDGKTEVVTIDGKTYNASKAAGHDFKAQPELAEAAAKTTENPLQKIDAALAQVDALRSDLGAVQNRFNSAITNLGNTVNNLSEARSRIEDSDYATEVSNMSRAQILQQAGTSVLAQANQVPQNVLSLLASHNGKLCRLKGIAPLQLGKCNIAGWLLGNPECDPLLPVRSWSYIVETPNSENGICYPGDFIDYEELREQLSSVSSFERFEIFPKESSWPNHNTNGVTAACSHEGKSSFYRNLLWLTEKEGSYPKLKNSYVNKKGKEVLVLWGIHHPPNSKEQQNLYQNENAYVSVVTSNYNRRFTPEIAERPKVRDQAGRMNYYWTLLKPGDTIIFEANGNLIAPMYAFALSRGFGSGIITSNASMHECNTKCQTPLGAINSSLPYQNIHPVTIGECPKYVRHHHHHH
In the case of B3, the TLR5 activity (EC50, ng/ml); IL-8 secretion by HEK293 cells came to 0.2 ng/mL.

B4: STF2.HA1-3(PR8), produced in E. coli (protein)
chain: MAQVINTNSLSLLTQNNLNKSQSALGTAIERLSSGLRINSAKDDAAGQAIANRFTANIKGLTQASRNANDGISIAQTTEGALNEINNNLQRVRELAVQSANSTNSQSDLDSIQAEITQRLNEIDRVSGQTQFNGVKVLAQDNTLTIQVGANDGETIDIDLKQINSQTLGLDSLNVQKAYDVKDTAVTTKAYANNGTTLDVSGLDDAAIKAATGGTNGTASVTGGAVKFDADNNKYFVTIGGFTGADAAKNGDYEVNVATDGTVTLAAGATKTTMPAGATTKTEVQELKDTPAVVSADAKNALIAGGVDATDANGAELVKMSYTDKNGKTIEGGYALKAGDKYYAADYDEATGAIKAKTTSYTAADGTTKTAANQLGGVDGKTEVVTIDGKTYNASKAAGHDFKAQPELAEAAAKTTENPLQKIDAALAQVDALRSDLGAVQNRFNSAITNLGNTVNNLSEARSRIEDSDYATEVSNMSRAQILQQAGTSVLAQANQVPQNVLSLLANSENGICYPGDFIDYEELREQLSSVSSFERFEIFPKESSWPNHNTNGVTAACSHEGKSSFYRNLLWLTEKEGSYPKLKNSYVNKKGKEVLVLWGIHHPPNSKEQQNLYQNENAYVSVVTSNYNRRFTPEIAERPKVRDQAGRMNYYWTLLKPGDTIIFEANGNLIAPMYAFALSRG
Molecule B4 showed a TLR5 activity (EC50, ng/ml); IL-8 secretion by HEK293 cells of 1.2 ng/mL.

B5: STF2.HA1-2(PR8), produced in E. coli (protein)
chain: MAQVINTNSLSLLTQNNLNKSQSALGTAIERLSSGLRINSAKDDAAGQAIANRFTANIKGLTQASRNANDGISIAQTTEGALNEINNNLQRVRELAVQSANSTNSQSDLDSIQAEITQRLNEIDRVSGQTQFNGVKVLAQDNTLTIQVGANDGETIDIDLKQINSQTLGLDSLNVQKAYDVKDTAVTTKAYANNGTTLDVSGLDDAAIKAATGGTNGTASVTGGAVKFDADNNKYFVTIGGFTGADAAKNGDYEVNVATDGTVTLAAGATKTTMPAGATTKTEVQELKDTPAVVSADAKNALIAGGVDATDANGAELVKMSYTDKNGKTIEGGYALKAGDKYYAADYDEATGAIKAKTTSYTAADGTTKTAANQLGGVDGKTEVVTIDGKTYNASKAAGHDFKAQPELAEAAAKTTENPLQKIDAALAQVDALRSDLGAVQNRFNSAITNLGNTVNNLSEARSRIEDSDYATEVSNMSRAQILQQAGTSVLAQANQVPQNVLSLLAKGIAPLQLGKCNIAGWLLGNPECDPLLPVRSWSYIVETPNSENGICYPGDFIDYEELREQLSSVSSFERFEIFPKESSWPNHNTNGVTAACSHEGKSSFYRNLLWLTEKEGSYPKLKNSYVNKKGKEVLVLWGIHHPPNSKEQQNLYQNENAYVSVVTSNYNRRFTPEIAERPKVRDQAGRMNYYWTLLKPGDTIIFEANGNLIAPMYAFALSRGFGSGIITS
In turn, B5 yielded a TLR5 activity (EC50, ng/ml); IL-8 secretion by HEK293 cells of 0.15 ng/mL.

B6: STF2.HA1-2(PR8)mut (protein)
chain: MAQVINTNSLSLLTQNNLNKSQSALGTAIERLSSGLRINSAKDDAAGQAIANRFTANIKGLTQASRNANDGISIAQTTEGALNEINNNLQRVRELAVQSANSTNSQSDLDSIQAEITQRLNEIDRVSGQTQFNGVKVLAQDNTLTIQVGANDGETIDIDLKQINSQTLGLDSLNVQKAYDVKDTAVTTKAYANNGTTLDVSGLDDAAIKAATGGTNGTASVTGGAVKFDADNNKYFVTIGGFTGADAAKNGDYEVNVATDGTVTLAAGATKTTMPAGATTKTEVQELKDTPAVVSADAKNALIAGGVDATDANGAELVKMSYTDKNGKTIEGGYALKAGDKYYAADYDEATGAIKAKTTSYTAADGTTKTAANQLGGVDGKTEVVTIDGKTYNASKAAGHDFKAQPELAEAAAKTTENPLQKIDAALAQVDALRSDLGAVQNRFNSAITNLGNTVNNLSEARSRIEDSDYATEVSNMSRAQILQQAGTSVLAQANQVPQNVLSLLAKGAAPLQLGKCNIAGWLLGNPECDPLLPVRSWSDIAETPNSENGICYPGDFIDYEELREQLSSVSSFERFEIFPKESSWPNHNTNGVTAACSHEGKSSFYRNLLWLTEKEGSYPKLKNSYVNKKGKEVLVLWGIHHPPNSKEQQNLYQNENAYVSVVTSNYNRRFTPEIAERPKVRDQAGRMNYYWTLLKPGDTIIFEANGNLIAPMYAFALSRGFGSGIITS
As to B6, the TLR5 activity (EC50, ng/ml); IL-8 secretion by HEK293 cells was 1.2 ng/mL.

B7: STF2.EIII+ (protein)
chain: MAQVINTNSLSLLTQNNLNKSQSALGTAIERLSSGLRINSAKDDAAGQAIANRFTANIKGLTQASRNANDGISIAQTTEGALNEINNNLQRVRELAVQSANSTNSQSDLDSIQAEITQRLNEIDRVSGQTQFNGVKVLAQDNTLTIQVGANDGETIDIDLKQINSQTLGLDSLNVQKAYDVKDTAVTTKAYANNGTTLDVSGLDDAAIKAATGGTNGTASVTGGAVKFDADNNKYFVTIGGFTGADAAKNGDYEVNVATDGTVTLAAGATKTTMPAGATTKTEVQELKDTPAVVSADAKNALIAGGVDATDANGAELVKMSYTDKNGKTIEGGYALKAGDKYYAADYDEATGAIKAKTTSYTAADGTTKTAANQLGGVDGKTEVVTIDGKTYNASKAAGHDFKAQPELAEAAAKTTENPLQKIDAALAQVDALRSDLGAVQNRFNSAITNLGNTVNNLSEARSRIEDSDYATEVSNMSRAQILQQAGTSVLAQANQVPQNVLSLLRKGNSKLEGQLEFPRTSMEKLQLKGTTYGVCSKAFKFLGTPADTGHGTVVLELQYTGTDGPCKVPISSVASLNDLTPVGRLVTVNPFVSVATANAKVLIELEPPFGDSYIVVGRGEQQINHHWHKSGSSIGK
For B7, the TLR-5 EC50 (batch 052); IL-8 secretion by HEK293 cells is over 5000 ng/mL, the TLR-5 EC50 (batch 054); IL-8 secretion by HEK293 cells is 1200 ng/mL and the TLR-5 EC50 (batch 057); IL-8 secretion by HEK293 cells is 198 ng/mL.

B8: STF2.HA1-2mutHis(PR8), produced in Baculovirus (protein)
chain: AQVINTNSLSLLTQNNLNKSQSALGTAIERLSSGLRINSAKDDAAGQAIANRFTANIKGLTQASRNANDGISIAQTTEGALNEINNNLQRVRELAVQSANSTNSQSDLDSIQAEITQRLNEIDRVSGQTQFNGVKVLAQDNTLTIQVGANDGETIDIDLKQINSQTLGLDSLNVQKAYDVKDTAVTTKAYANNGTTLDVSGLDDAAIKAATGGTNGTASVTGGAVKFDADNNKYFVTIGGFTGADAAKNGDYEVNVATDGTVTLAAGATKTTMPAGATTKTEVQELKDTPAVVSADAKNALIAGGVDATDANGAELVKMSYTDKNGKTIEGGYALKAGDKYYAADYDEATGAIKAKTTSYTAADGTTKTAANQLGGVDGKTEVVTIDGKTYNASKAAGHDFKAQPELAEAAAKTTENPLQKIDAALAQVDALRSDLGAVQNRFNSAITNLGNTVNNLSEARSRIEDSDYATEVSNMSRAQILQQAGTSVLAQANQVPQNVLSLLASGSGSGSKGAAPLQLGKCNIAGWLLGNPECDPLLPVRSWSDIAETPNSENGICYPGDFIDYEELREQLSSVSSFERFEIFPKESSWPNHNTNGVTAACSHEGKSSFYRNLLWLTEKEGSYPKLKNSYVNKKGKEVLVLWGIHHPPNSKEQQNLYQNENAYVSVVTSNYNRRFTPEIAERPKVRDQAGRMNYYWTLLKPGDTIIFEANGNLIAPMYAFALSRGFGSGIITSHHHHHH
For B8, the TLR activity (EC50, ng/ml); IL-8 secretion by HEK293 cells worked out at 900 ng/mL.
